Results: patent publication US20100184658A1 (published 2010)

What was measured:
Assay in all cases: cell-based or functional assay
PRKG2 (PKG2) = target: T1, PRKG2 (PKG2) (UniProt Q13237 1-762, limits assumed)
T1 sequence (looked up): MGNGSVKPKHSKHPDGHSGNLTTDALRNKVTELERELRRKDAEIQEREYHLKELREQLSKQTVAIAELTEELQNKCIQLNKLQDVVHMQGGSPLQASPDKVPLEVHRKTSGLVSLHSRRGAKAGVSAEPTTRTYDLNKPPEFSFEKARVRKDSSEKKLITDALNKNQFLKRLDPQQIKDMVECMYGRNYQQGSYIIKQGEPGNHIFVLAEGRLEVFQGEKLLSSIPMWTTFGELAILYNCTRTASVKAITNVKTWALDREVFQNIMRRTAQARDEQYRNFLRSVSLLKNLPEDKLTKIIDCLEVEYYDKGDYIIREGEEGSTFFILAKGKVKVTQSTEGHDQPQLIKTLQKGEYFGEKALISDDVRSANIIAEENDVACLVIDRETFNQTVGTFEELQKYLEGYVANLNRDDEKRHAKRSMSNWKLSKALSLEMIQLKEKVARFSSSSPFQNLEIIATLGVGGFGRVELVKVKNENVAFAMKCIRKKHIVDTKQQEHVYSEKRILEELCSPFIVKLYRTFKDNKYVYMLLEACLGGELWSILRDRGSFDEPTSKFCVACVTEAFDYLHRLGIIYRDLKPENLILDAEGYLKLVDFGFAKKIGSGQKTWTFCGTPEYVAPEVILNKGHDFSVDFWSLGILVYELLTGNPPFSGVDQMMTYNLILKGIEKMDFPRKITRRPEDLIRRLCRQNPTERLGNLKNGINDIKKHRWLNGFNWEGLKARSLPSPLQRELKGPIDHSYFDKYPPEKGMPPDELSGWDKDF

[1] = target: T2, TAOK2 (TAO1) TAO kinase 2 (UniProt Q9UL54 1-314, limits assumed)
T2 sequence (looked up): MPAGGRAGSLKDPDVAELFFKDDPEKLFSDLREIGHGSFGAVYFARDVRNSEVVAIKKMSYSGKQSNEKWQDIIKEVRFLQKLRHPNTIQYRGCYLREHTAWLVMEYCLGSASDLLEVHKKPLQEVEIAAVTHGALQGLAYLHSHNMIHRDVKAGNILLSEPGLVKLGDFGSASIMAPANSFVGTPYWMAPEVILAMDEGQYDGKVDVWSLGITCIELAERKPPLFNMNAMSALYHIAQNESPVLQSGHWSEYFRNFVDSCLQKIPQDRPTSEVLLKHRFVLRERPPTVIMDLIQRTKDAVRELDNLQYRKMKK

[2] = target: RAF1 (cRAF) Y340D Y341D c-Raf (UniProt P04049 306-648, limits assumed)
[3] = target: T3, PRKD2 (PKD2) Protein kinase D2 (UniProt Q9BZL6 1-878, limits assumed)
T3 sequence (looked up): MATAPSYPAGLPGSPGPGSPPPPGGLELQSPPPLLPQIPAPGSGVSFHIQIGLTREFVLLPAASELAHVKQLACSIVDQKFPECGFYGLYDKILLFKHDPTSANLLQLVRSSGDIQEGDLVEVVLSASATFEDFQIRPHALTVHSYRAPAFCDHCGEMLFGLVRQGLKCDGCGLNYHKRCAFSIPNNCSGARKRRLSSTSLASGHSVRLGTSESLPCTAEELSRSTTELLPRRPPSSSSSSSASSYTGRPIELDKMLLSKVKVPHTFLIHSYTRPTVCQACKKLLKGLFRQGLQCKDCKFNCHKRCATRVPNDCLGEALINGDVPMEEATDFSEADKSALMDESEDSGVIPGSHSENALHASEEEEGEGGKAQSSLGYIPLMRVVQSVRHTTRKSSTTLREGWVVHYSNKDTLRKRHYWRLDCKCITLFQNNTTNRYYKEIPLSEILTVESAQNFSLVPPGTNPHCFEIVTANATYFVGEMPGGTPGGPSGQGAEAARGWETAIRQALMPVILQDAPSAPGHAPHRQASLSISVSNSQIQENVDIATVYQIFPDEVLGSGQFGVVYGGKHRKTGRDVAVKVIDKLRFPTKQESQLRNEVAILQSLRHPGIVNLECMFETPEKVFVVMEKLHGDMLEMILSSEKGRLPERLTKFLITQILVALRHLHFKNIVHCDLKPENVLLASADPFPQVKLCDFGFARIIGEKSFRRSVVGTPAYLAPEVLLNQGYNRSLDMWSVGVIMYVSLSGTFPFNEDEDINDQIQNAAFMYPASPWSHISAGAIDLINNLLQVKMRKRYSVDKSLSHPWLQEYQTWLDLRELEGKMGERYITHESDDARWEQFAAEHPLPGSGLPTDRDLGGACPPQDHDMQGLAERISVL

PRKCN (PKD3) = target: T4, PRKCN (PKD3) (UniProt O94806 1-890, limits assumed)
T4 sequence (looked up): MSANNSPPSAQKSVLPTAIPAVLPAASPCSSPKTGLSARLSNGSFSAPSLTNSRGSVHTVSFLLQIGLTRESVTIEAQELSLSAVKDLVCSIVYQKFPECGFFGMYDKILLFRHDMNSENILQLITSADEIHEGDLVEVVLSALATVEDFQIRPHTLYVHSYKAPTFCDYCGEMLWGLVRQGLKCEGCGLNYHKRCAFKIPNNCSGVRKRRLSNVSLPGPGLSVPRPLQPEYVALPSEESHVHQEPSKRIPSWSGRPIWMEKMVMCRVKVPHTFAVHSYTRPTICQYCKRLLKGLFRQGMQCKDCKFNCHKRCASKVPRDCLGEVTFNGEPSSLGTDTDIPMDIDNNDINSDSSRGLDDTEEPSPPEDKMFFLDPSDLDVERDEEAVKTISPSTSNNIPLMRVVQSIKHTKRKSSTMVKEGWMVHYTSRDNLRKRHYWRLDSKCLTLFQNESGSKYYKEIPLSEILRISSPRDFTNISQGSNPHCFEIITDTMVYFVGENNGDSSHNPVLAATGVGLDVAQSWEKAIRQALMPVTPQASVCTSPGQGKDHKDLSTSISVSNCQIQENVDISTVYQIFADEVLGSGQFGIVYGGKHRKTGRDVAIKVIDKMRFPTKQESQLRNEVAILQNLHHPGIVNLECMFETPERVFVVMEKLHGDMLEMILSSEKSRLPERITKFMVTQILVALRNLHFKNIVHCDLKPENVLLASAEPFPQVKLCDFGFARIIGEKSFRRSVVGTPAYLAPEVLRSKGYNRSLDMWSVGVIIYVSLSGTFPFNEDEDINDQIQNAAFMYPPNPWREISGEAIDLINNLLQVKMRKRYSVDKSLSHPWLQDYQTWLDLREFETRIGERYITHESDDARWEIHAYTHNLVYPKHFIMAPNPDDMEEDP

SGRPPMIVWFNRPFLIAVSHTHGQTILFMAKVINPVGA [D3 peptide]
% Inhibition mean (PRKG2 (PKG2)): 101% | % Inhibition mean [1]: 100% | % Inhibition mean [2]: 94.6% | % Inhibition mean [3]: 92.5% | % Inhibition mean (PRKCN (PKD3)): 69.6%
